Reference: the supplement of paper PMC5998384

What was measured:
HeLa Kyoto [1] = experiment: solubility in G1/S (NP-40 vs SDS abundance) (log2 ratio); higher = more soluble; details: cell cycle stage: G1/S
HeLa Kyoto [2] = experiment: melting temperature (median over replicates), in situ; higher = more thermally stable
HeLa Kyoto [3] = experiment: thermal stability score vs G1/S (z-score of summed log2 fold changes over temperatures); higher = more thermally stable than in G1/S
HeLa Kyoto [4] = experiment: solubility change mitosis vs G1/S (difference of NP-40 vs SDS log2 ratios) (log2 ratio difference); higher = more soluble in mitosis
[5] = cell cycle stage: early G1 (4.5 h after nocodazole release)
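Wherever melting temperature (median over replicates), in situ is given: HeLa Kyoto cells synchronized by double thymidine or nocodazole block, proteins quantified by TMT10plex mass spectrometry, three independent biological replicates.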
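Wherever solubility change mitosis vs G1/S (difference of NP-40 vs SDS log2 ratios) is given: synchronized HeLa Kyoto cells (double thymidine block for G1/S, nocodazole release for mitosis), protein amounts in NP-40 versus SDS lysates quantified by mass spectrometry, three biological replicates.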
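Wherever solubility in G1/S (NP-40 vs SDS abundance) is given: HeLa Kyoto cells arrested at G1/S by double thymidine block, proteins quantified by TMT10plex mass spectrometry in mild NP-40 versus SDS extracts, three biological replicates.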
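Wherever thermal stability score vs G1/S (z-score of summed log2 fold changes over temperatures) is given: synchronized HeLa Kyoto cells, proteins quantified by TMT10plex mass spectrometry, three biological replicates, mitosis taken 0.5 h after nocodazole release, G1/S directly after double thymidine block.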

Sequence | solubility in G1/S (log2) (HeLa Kyoto [1]) | melting temperature (HeLa Kyoto [2]; cell cycle stage: G1/S) [°C] | melting temperature (HeLa Kyoto [2]; cell cycle stage: mitosis) [°C] | thermal stability score (HeLa Kyoto [3]; [5]) | thermal stability score (HeLa Kyoto [3]; cell cycle stage: mitosis) | solubility change mitosis (log2) (HeLa Kyoto [4])
MDSKESLTPGREENPSSVLAQERGDVMDFYKTLRGGATVKVSASSPSLAVASQSDSKQRRLLVDFPKGSVSNAQQPDLSKAVSLSMGLYMGETETKVMGNDLGFPQQGQISLSSGETDLKLLEESIANLNRSTSVPENPKSSASTAVSAAPTEKEFPKTHSDVSSEQQHLKGQTGTNGGNVKLYTTDQSTFDILQDLEFSSGSPGKETNESPWRSDLLIDENCLLSPLAGEDDSFLLEGNSNEDCKPLILPDTKPKIKDNGDLVLSSPSNVTLPQVKTEKEDFIELCTPGVIKQEKLGTVYCQASFPGANIIGNKMSAISVHGVSTSGGQMYHYDMNTASLSQQQDQKPIFNVIPPIPVGSENWNRCQGSGDDNLTSLGTLNFPGRTVFSNGYSSPSMRPDVSSPPSSSSTATTGPPPKLCLVCSDEASGCHYGVLTCGSCKVFFKRAVEGQHNYLCAGRNDCIIDKIRRKNCPACRYRKCLQAGMNLEARKTKKKIKGIQQATTGVSQETSENPGNKTIVPATLPQLTPTLVSLLEVIEPEVLYAGYDSSVPDSTWRIMTTLNMLGGRQVIAAVKWAKAIPGFRNLHLDDQMTLLQYSWMFLMAFALGWRSYRQSSANLLCFAPDLIINEQRMTLPCMYDQCKHMLYVSSELHRLQVSYEEYLCMKTLLLLSSVPKDGLKSQELFDEIRMTYIKELGKAIVKREGNSSQNWQRFYQLTKLLDSMHEVVENLLNYCFQTFLDKTMSIEFPEMLAEIITNQIPKYSNGNIKKLLFHQK [NR3C1] | 0.0188 | 48.2 | 49.3 | 0.508 | 1.98 | -0.168
MDSRLQEIRERQKLRRQLLAQQLGAESADSIGAVLNSKDEQREIAETRETCRASYDTSAPNAKRKYLDEGETDEDKMEEYKDELEMQQDEENLPYEEEIYKDSSTFLKGTQSLNPHNDYCQHFVDTGHRPQNFIRDVGLADRFEEYPKLRELIRLKDELIAKSNTPPMYLQADIEAFDIRELTPKFDVILLEPPLEEYYRETGITANEKCWTWDDIMKLEIDEIAAPRSFIFLWCGSGEGLDLGRVCLRKWGYRRCEDICWIKTNKNNPGKTKTLDPKAVFQRTKEHCLMGIKGTVKRSTDGDFIHANVDIDLIITEEPEIGNIEKPVEIFHIIEHFCLGRRRLHLFGRDSTIRPGWLTVGPTLTNSNYNAETYASYFSAPNSYLTGCTEEIERLRPKSPPPKSKSDRGGGAPRGGGRGGTSAGRGRERNRSNFRGERGGFRGGRGGAHRGGFPPR [METTL14] | 0.0131 | 52.3 | 53.4 | -0.705 | 0.141 | -0.118
MDTGVIEGGLNVTLTIRLLMHGKEVGSIIGKKGESVKKMREESGARINISEGNCPERIITLAGPTNAIFKAFAMIIDKLEEDISSSMTNSTAASRPPVTLRLVVPASQCGSLIGKGGCKIKEIRESTGAQVQVAGDMLPNSTERAITIAGIPQSIIECVKQICVVMLETLSQSPPKGVTIPYRPKPSSSPVIFAGGQDRYSTGSDSASFPHTTPSMCLNPDLEGPPLEAYTIQGQYAIPQPDLTKLHQLAMQQSHFPMTHGNTGFSGIESSSPEVKGYWGLDASAQTTSHELTIPNDLIGCIIGRQGAKINEIRQMSGAQIKIANPVEGSTDRQVTITGSAASISLAQYLINVRLSSETGGMGSS [PCBP2] | 0.222 | 47.9 | 49.5 | 1.75 | 7.6 | -0.136
MDTMMLNVRNLFEQLVRRVEILSEGNEVQFIQLAKDFEDFRKKWQRTDHELGKYKDLLMKAETERSALDVKLKHARNQVDVEIKRRQRAEADCEKLERQIQLIREMLMCDTSGSIQLSEEQKSALAFLNRGQPSSSNAGNKRLSTIDESGSILSDISFDKTDESLDWDSSLVKTFKLKKREKRRSTSRQFVDGPPGPVKKTRSIGSAVDQGNESIVAKTTVTVPNDGGPIEAVSTIETVPYWTRSRRKTGTLQPWNSDSTLNSRQLEPRTETDSVGTPQSNGGMRLHDFVSKTVIKPESCVPCGKRIKFGKLSLKCRDCRVVSHPECRDRCPLPCIPTLIGTPVKIGEGMLADFVSQTSPMIPSIVVHCVNEIEQRGLTETGLYRISGCDRTVKELKEKFLRVKTVPLLSKVDDIHAICSLLKDFLRNLKEPLLTFRLNRAFMEAAEITDEDNSIAAMYQAVGELPQANRDTLAFLMIHLQRVAQSPHTKMDVANLAKVFGPTIVAHAVPNPDPVTMLQDIKRQPKVVERLLSLPLEYWSQFMMVEQENIDPLHVIENSNAFSTPQTPDIKVSLLGPVTTPEHQLLKTPSSSSLSQRVRSTLTKNTPRFGSKSKSATNLGRQGNFFASPMLK [RACGAP1] | -0.106 | 48.1 | 49.1 | 1.13 | 1.61 | 0.141
MDVAESPERDPHSPEDEEQPQGLSDDDILRDSGSDQDLDGAGVRASDLEDEESAARGPSQEEEDNHSDEEDRASEPKSQDQDSEVNELSRGPTSSPCEEEGDEGEEDRTSDLRDEASSVTRELDEHELDYDEEVPEEPAPAVQEDEAEKAGAEDDEEKGEGTPREEGKAGVQSVGEKESLEAAKEKKKEDDDGEIDDGEIDDDDLEEGEVKDPSDRKVRPRPTCRFFMKGNCTWGMNCRFIHPGVNDKGNYSLITKADPFPPNGAPPLGPHPLMPANPWGGPVVDEILPPPPPEPPTESAWERGLRHAKEVLKKATIRKEQEPDFEEKRFTVTIGEDEREFDKENEVFRDWNSRIPRDVRDTVLEPYADPYYDYEIERFWRGGQYENFRVQYTETEPYHNYRERERERERENRQRERERERERDRERERRQRERERERERERDKERQRRKEEWERERAKRDEKDRQHRDRDREKEREKEKGKPKPRSPQPPSRQAEPPKKEAATTGPQVKRADEWKDPWRRSKSPKKKLGVSVSPSRARRRRKTSASSASASNSSRSSSRSSSYSGSGSSRSRSRSSSYSSYSSRSSRHSSFSGSRSRSRSFSSSPSPSPTPSPHRPSIRTKGEPAPPPGKAGEKSVKKPAPPPAPPQATKTTAPVPEPTKPGDPREARRKERPARTPPRRRTLSGSGSGSGSSYSGSSSRSRSLSVSSVSSVSSATSSSSSAHSVDSEDMYADLASPVSSASSRSPAPAQTRKEKGKSKKEDGVKEEKRKRDSSTQPPKSAKPPAGGKSSQQPSTPQQAPPGQPQQGTFVAHKEIKLTLLNKAADKGSRKRYEPSDKDRQSPPPAKRPNTSPDRGSRDRKSGGRLGSPKPERQRGQNSKAPAAPADRKRQLSPQSKSSSKVTSVPGKASDPGAASTKSGKASTLSRREELLKQLKAVEDAIARKRAKIPGKA [ZC3H18] | -0.653 | 48.7 | 51.3 | 7.23 | 11.9 | 0.144
MDVENEQILNVNPADPDNLSDSLFSGDEENAGTEEIKNEINGNWISASSINEARINAKAKRRLRKNSSRDSGRGDSVSDSGSDALRSGLTVPTSPKGRLLDRRSRSGKGRGLPKKGGAGGKGVWGTPGQVYDVEEVDVKDPNYDDDQENCVYETVVLPLDERAFEKTLTPIIQEYFEHGDTNEVAEMLRDLNLGEMKSGVPVLAVSLALEGKASHREMTSKLLSDLCGTVMSTTDVEKSFDKLLKDLPELALDTPRAPQLVGQFIARAVGDGILCNTYIDSYKGTVDCVQARAALDKATVLLSMSKGGKRKDSVWGSGGGQQSVNHLVKEIDMLLKEYLLSGDISEAEHCLKELEVPHFHHELVYEAIIMVLESTGESTFKMILDLLKSLWKSSTITVDQMKRGYERIYNEIPDINLDVPHSYSVLERFVEECFQAGIISKQLRDLCPSRGRKRFVSEGDGGRLKPESY [PDCD4] | 0.349 | 48.8 |  | 1.91 | 4.21 | -0.495
MDVGELLSYQPNRGTKRPRDDEEEEQKMRRKQTGTRERGRYREEEMTVVEEADDDKKRLLQIIDRDGEEEEEEEEPLDESSVKKMILTFEKRSYKNQELRIKFPDNPEKFMESELDLNDIIQEMHVVATMPDLYHLLVELNAVQSLLGLLGHDNTDVSIAVVDLLQELTDIDTLHESEEGAEVLIDALVDGQVVALLVQNLERLDESVKEEADGVHNTLAIVENMAEFRPEMCTEGAQQGLLQWLLKRLKAKMPFDANKLYCSEVLAILLQDNDENRELLGELDGIDVLLQQLSVFKRHNPSTAEEQEMMENLFDSLCSCLMLSSNRERFLKGEGLQLMNLMLREKKISRSSALKVLDHAMIGPEGTDNCHKFVDILGLRTIFPLFMKSPRKIKKVGTTEKEHEEHVCSILASLLRNLRGQQRTRLLNKFTENDSEKVDRLMELHFKYLGAMQVADKKIEGEKHDMVRRGEIIDNDTEEEFYLRRLDAGLFVLQHICYIMAEICNANVPQIRQRVHQILNMRGSSIKIVRHIIKEYAENIGDGRSPEFRENEQKRILGLLENF [CTNNBL1] | -0.0781 | 47.6 | 47.7 | 3.96 | 7.66 | 0.207
MDWLMGKSKAKPNGKKPAAEERKAYLEPEHTKARITDFQFKELVVLPREIDLNEWLASNTTTFFHHINLQYSTISEFCTGETCQTMAVCNTQYYWYDERGKKVKCTAPQYVDFVMSSVQKLVTDEDVFPTKYGREFPSSFESLVRKICRHLFHVLAHIYWAHFKETLALELHGHLNTLYVHFILFAREFNLLDPKETAIMDDLTEVLCSGAGGVHSGGSGDGAGSGGPGAQNHVKER [MOB2] | -0.0333 | 50.1 |  | 0.797 | 0.832 | 0.0638
